Results reported in article PMC5225067.

Target: AD-Myo5 [S. cerevisiae]
Test: yeast two-hybrid (β-galactosidase activity)
Settings: read off a plot

Row | response (25 °C (no heat shock)) [mU] | response (39 °C (heat shock)) [mU] | Substance
1 | 0.34 | 0.45 | She4-BD, wild type mutant S18A [S. cerevisiae] / AD-Myo5 [S. cerevisiae] chain 1 S18A
2 | 0.075 | 0.17 | She4-BD, wild type mutant S18E [S. cerevisiae] / AD-Myo5 [S. cerevisiae] chain 1 S18E
3 | 0.79 | 1 | human BD-UNC45-SM, wild type mutant S251A [human] / AD-Myo5 [S. cerevisiae] chain 1 S251A
4 | 0.29 | 0.52 | human BD-UNC45-SM, wild type mutant S251E [human] / AD-Myo5 [S. cerevisiae] chain 1 S251E
